This assay concerns the target PD-L1 on PD-L1 expressing cells (IFNg-stimulated THP-1 cells; MDA-MB-231 cells) (UniProt Q9NZQ7). Kind of assay: FACS, MDA-MB-231 cells, 1 µg/ml, other secondary antibody. On the technique in general: A flow cytometer gives signals particle by particle.

PD-L1 on PD-L1 expressing cells (IFNg-stimulated THP-1 cells; MDA-MB-231 cells), sequence (Q9NZQ7 19-290 limits assumed): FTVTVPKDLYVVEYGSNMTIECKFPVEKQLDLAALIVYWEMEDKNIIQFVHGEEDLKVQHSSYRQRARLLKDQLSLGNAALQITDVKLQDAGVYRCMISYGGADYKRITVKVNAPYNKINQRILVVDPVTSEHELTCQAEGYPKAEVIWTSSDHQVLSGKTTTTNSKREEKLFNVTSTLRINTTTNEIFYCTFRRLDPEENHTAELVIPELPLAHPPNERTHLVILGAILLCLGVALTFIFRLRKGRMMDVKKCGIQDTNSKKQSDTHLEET

Take “mouse anti-PD-L1 antibody (R&D Systems, cat. no. MAB1561)”: the MFI is 610.

The values are drawn from patent US20180312565A1.
